{
  "source": "patent US20250073269A1",
  "about": "(CAS LAMVAC GUANGZHOU BIOMEDICAL TECHNOLOGY, published 2025)",
  "binders": {"B1": {"name": "monoclonal antibody 5H4 (5H4 mAb) (antibody, V domains shown)", "VH": "EVKLVESGGGLVKPGGSLKLSCAASGFTFSNYAMSWVRQSPERRLEWVAEISITGRYTYYPDTVTGRFTISRDNAKNTLYLEMSSLRSEDTAMYYCTREGYDYAPSWFAYWGQGTLVTVSA", "VL": "DVVMTQTPLSLPVSLGDQASISCRSGQTLVHRNGITYLEWYLQKPGQSPKLLIYKVSNRFSGVPDRFSGSGSGTDFTLKISRVEAEDLGIYYCFQGSHVPRTFGGGTKLEIK", "notes": "Mouse monoclonal antibody, detected with anti-mouse IgG; also called mouse anti-rVAR2 protein monoclonal antibody 5H4 mAb"}},
  "key": {"[1]": {"biological_target": "T1, wild-type VAR2CSA recombinant protein (rVAR2) (Plasmodium)", "T1 construct": "Monomer of about 73.1 kDa including the tag, with no intra- or intermolecular coupling; Prepared as in CN110325551B; also called rVAR2 protein; monomeric VAR2CSA recombinant protein", "T1 chain": "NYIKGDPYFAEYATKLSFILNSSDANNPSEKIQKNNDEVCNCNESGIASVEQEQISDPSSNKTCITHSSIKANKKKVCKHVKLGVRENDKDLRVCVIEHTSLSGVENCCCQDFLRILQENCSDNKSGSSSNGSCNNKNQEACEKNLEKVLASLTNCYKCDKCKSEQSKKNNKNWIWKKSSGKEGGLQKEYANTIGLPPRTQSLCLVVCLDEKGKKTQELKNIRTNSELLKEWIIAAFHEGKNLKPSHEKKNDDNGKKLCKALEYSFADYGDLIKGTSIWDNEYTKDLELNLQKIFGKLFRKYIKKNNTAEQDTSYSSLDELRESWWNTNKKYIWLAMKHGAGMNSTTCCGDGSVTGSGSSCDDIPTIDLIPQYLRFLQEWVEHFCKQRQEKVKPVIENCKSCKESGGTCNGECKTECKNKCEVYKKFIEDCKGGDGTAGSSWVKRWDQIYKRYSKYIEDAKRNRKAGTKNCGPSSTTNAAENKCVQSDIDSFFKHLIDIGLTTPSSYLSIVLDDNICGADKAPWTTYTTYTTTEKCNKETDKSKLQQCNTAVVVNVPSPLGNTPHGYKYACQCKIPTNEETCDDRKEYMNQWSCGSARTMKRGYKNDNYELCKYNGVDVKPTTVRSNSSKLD", "test": "ELISA, rVAR2 coated at 20 nM, 5H4 mAb titrated, non-linear regression; mean of three experiments"}, "[2]": {"biological_target": "T2, catenated VAR2CSA recombinant protein AXVB (Plasmodium, isopeptide bond between SpyTag and SpyCatcher (intra- or intermolecular coupling, cyclization and catenation))", "T2 construct": "also called AXVB protein; AXVB navigator protein", "test": "ELISA, AXVB coated at 20 nM, 5H4 mAb titrated, non-linear regression; mean of three experiments"}, "[3]": {"biological_target": "T2, catenated VAR2CSA recombinant protein …", "test": "ELISA, AXVB coated, 5H4 mAb titrated; single experiment of three (FIG. 10)", "description": "(§1) (1) Antigen coating: The AXVB and rVAR2 proteins were diluted to a final concentration of 20 nM with the Na₂CO₃—NaHCO₃ carbonate coating buffer (with a pH of 9.6) which was filtered and sterilized by the 0.22 μm filter membrane, respectively, 100 μL of each protein sample was added to a 96-well Elisa plate (JET BIOFIL, Guangzhou, China, Cat. #FEP101896), with three replicates per protein sample, and the Elisa plate was covered with a sealing film and incubated at 4° C. overnight. […] (2) Antigen blocking: The coating solution in the Elisa plate was removed, the Elisa plate was washed with a PBST solution (1×PBS+0.05% v/v polyoxyethylene sorbitan fatty acid ester, with a pH of 7.2-7.4) three times, the liquid was patted dry, 200 μL of PBST solution containing 5% BSA was added, and the Elisa plate was then incubated at room temperature for 2 hours. […] (3) Primary antibody incubation: The antigen blocking solution was removed, the Elisa plate was washed with the PBST solution three times, and 100 μL of 5H4 mAb at different concentrations which was diluted with an antibody dilution solution (1×PBS containing 0.1% BSA) in different ratios was added to each well."}, "[4]": {"biological_target": "T1, wild-type VAR2CSA recombinant protein …", "test": "ELISA, rVAR2 coated, 5H4 mAb titrated; single experiment of three", "description": "as §1"}, "[5]": {"biological_target": "T1, wild-type VAR2CSA recombinant protein …", "test": "ELISA, rVAR2 coated, 5H4 mAb titrated; single experiment of three (FIG. 11)", "description": "as §1"}, "[6]": {"biological_target": "T2, catenated VAR2CSA recombinant protein …", "test": "ELISA, AXVB coated, 5H4 mAb titrated; single experiment of three", "description": "as §1"}},
  "note": "“And” between values parts separate entries of the source, which are not always exact repeats. Equal values may be shown once.",
  "data": [
    {"binder": "B1", "values": [
      {"measurement": "Kd", "setting": "[1]", "result": 144, "unit": "nM"},
      {"measurement": "Kd", "setting": "[2]", "result": 83.7, "unit": "nM"},
      {"measurement": "Kd", "setting": "[3]", "result": 77.8, "unit": "nM"},
      {"measurement": "Kd", "setting": "[4]", "result": "123 nM and 174 nM"},
      {"measurement": "Kd", "setting": "[5]", "result": 136, "unit": "nM"},
      {"measurement": "Kd", "setting": "[6]", "result": "73 nM and 100 nM"}
    ]}
  ]
}
